From patent publication US20050026839A1 (GENERAL HOSPITAL, published 2005)
Square brackets hold non-standard residues; d marks the D form. Ends that are not written are not given here. hArg = N=C(N)NCCCC[C@H](N)C(=O)O; Nle = CCCC[C@H](N)C(=O)O; Aib = CC(C)(N)C(=O)O

B1: [Ala^3,12,Nle^8,Gln^10,Har^11,Trp^14,Arg^19,Tyr^21]PTH(1-21)amide (peptide)
peptide: AVAEIQL[Nle]HQ[hArg]AKWLASVRRY-NH2
modifications: N-terminus assumed
SMILES: CCCC[C@H](NC(=O)[C@H](CC(C)C)NC(=O)[C@H](CCC(N)=O)NC(=O)[C@@H](NC(=O)[C@H](CCC(=O)O)NC(=O)[C@H](C)NC(=O)[C@@H](NC(=O)[C@H](C)N)C(C)C)[C@@H](C)CC)C(=O)N[C@@H](Cc1c[nH]cn1)C(=O)N[C@@H](CCC(N)=O)C(=O)N[C@@H](CCCCNC(=N)N)C(=O)N[C@@H](C)C(=O)N[C@@H](CCCCN)C(=O)N[C@@H](Cc1c[nH]c2ccccc12)C(=O)N[C@@H](CC(C)C)C(=O)N[C@@H](C)C(=O)N[C@@H](CO)C(=O)N[C@H](C(=O)N[C@@H](CCCNC(=N)N)C(=O)N[C@@H](CCCNC(=N)N)C(=O)N[C@@H](Cc1ccc(O)cc1)C(N)=O)C(C)C
notes: unlabeled peptide; also called [M]PTH(1-21); 608 [M]PTH(1-21)
B2: [Aib^9,M]PTH(1-14) (peptide)
peptide: AVAEIQLM[Aib]Q[hArg]AKW-NH2
modifications: N-terminus assumed
SMILES: CC[C@H](C)[C@H](NC(=O)[C@H](CCC(=O)O)NC(=O)[C@H](C)NC(=O)[C@@H](NC(=O)[C@H](C)N)C(C)C)C(=O)N[C@@H](CCC(N)=O)C(=O)N[C@@H](CC(C)C)C(=O)N[C@@H](CCSC)C(=O)NC(C)(C)C(=O)N[C@@H](CCC(N)=O)C(=O)N[C@@H](CCCCNC(=N)N)C(=O)N[C@@H](C)C(=O)N[C@@H](CCCCN)C(=O)N[C@@H](Cc1c[nH]c2ccccc12)C(N)=O
notes: Aib scan of [M]PTH(1-14); also called 630 Aib-9
B3: [Aib^1,3]PTH(1-9) (peptide)
peptide: [Aib]V[Aib]EIQLMH-NH2
modifications: N-terminus assumed
SMILES: CC[C@H](C)[C@H](NC(=O)[C@H](CCC(=O)O)NC(=O)C(C)(C)NC(=O)[C@@H](NC(=O)C(C)(C)N)C(C)C)C(=O)N[C@@H](CCC(N)=O)C(=O)N[C@@H](CC(C)C)C(=O)N[C@@H](CCSC)C(=O)N[C@@H](Cc1c[nH]cn1)C(N)=O
B4: [Aib^2,M]PTH(1-14) (peptide)
peptide: A[Aib]AEIQLMHQ[hArg]AKW-NH2
modifications: N-terminus assumed
SMILES: CC[C@H](C)[C@H](NC(=O)[C@H](CCC(=O)O)NC(=O)[C@H](C)NC(=O)C(C)(C)NC(=O)[C@H](C)N)C(=O)N[C@@H](CCC(N)=O)C(=O)N[C@@H](CC(C)C)C(=O)N[C@@H](CCSC)C(=O)N[C@@H](Cc1c[nH]cn1)C(=O)N[C@@H](CCC(N)=O)C(=O)N[C@@H](CCCCNC(=N)N)C(=O)N[C@@H](C)C(=O)N[C@@H](CCCCN)C(=O)N[C@@H](Cc1c[nH]c2ccccc12)C(N)=O
notes: Aib scan of [M]PTH(1-14); also called 623 Aib-2
B5: [Aib^8,M]PTH(1-14) (peptide)
peptide: AVAEIQL[Aib]HQ[hArg]AKW-NH2
modifications: N-terminus assumed
SMILES: CC[C@H](C)[C@H](NC(=O)[C@H](CCC(=O)O)NC(=O)[C@H](C)NC(=O)[C@@H](NC(=O)[C@H](C)N)C(C)C)C(=O)N[C@@H](CCC(N)=O)C(=O)N[C@@H](CC(C)C)C(=O)NC(C)(C)C(=O)N[C@@H](Cc1c[nH]cn1)C(=O)N[C@@H](CCC(N)=O)C(=O)N[C@@H](CCCCNC(=N)N)C(=O)N[C@@H](C)C(=O)N[C@@H](CCCCN)C(=O)N[C@@H](Cc1c[nH]c2ccccc12)C(N)=O
notes: Aib scan of [M]PTH(1-14); also called 629 Aib-8

Experiments:
[1] = molecular target: T1, wild-type human PTH/PTHrP receptor (hP1R-WT) (human, UniProt Q03431 27-593); test: competition binding, 125I-[M]PTH(1-21) tracer, HKRK-B28 cells, 4 h at 4 C
T1 construct: whole, on cells; HKRK-B28 cells express ~280,000 receptors per cell; also called PTH-1 receptor; PTH-1R
T1 sequence (looked up): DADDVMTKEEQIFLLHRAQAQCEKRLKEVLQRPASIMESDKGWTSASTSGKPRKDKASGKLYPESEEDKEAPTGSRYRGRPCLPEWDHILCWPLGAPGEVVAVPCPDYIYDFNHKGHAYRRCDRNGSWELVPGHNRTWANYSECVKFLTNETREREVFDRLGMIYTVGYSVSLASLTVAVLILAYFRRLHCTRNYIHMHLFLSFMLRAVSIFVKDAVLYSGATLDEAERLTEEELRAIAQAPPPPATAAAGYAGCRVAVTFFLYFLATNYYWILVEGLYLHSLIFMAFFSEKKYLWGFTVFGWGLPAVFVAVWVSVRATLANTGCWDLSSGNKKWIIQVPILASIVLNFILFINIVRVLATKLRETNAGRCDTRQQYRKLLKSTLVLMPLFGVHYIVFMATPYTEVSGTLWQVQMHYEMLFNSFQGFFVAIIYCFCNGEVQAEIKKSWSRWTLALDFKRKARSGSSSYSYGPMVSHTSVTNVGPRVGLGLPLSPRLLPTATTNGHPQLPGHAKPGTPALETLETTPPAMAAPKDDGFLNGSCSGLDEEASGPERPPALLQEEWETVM
Method: (§1) Competition Binding. Binding reactions were performed with HKRK-B28 cells or in COS-7 cells in 24-well plates. The cells were rinsed with 0.5 mL of binding buffer, and then treated successively with 100 μL binding buffer, 100 μL of binding buffer containing various amounts of unlabeled competitor ligand, and 100 μL of binding buffer containing ca. 100,000 cpm of ¹²⁵I-[M]PTH(1-21) or ¹²⁵I-[Aib^{1,3},M]PTH(1-21)} (ca. 26 fmol; final volume=300 μL). Incubations were 4 to 6 h at 4° C., at which time near equilibrium conditions were attained. Cells were then placed on ice, the binding medium was removed, and the monolayer was rinsed three times with 0.5 mL of cold binding buffer. The cells were subsequently lysed with 0.5 mL […] NaOH and counted for radioactivity. For each tracer and in each experiment, the non-specific binding was determined as the radioactivity that bound in the presence of the same unlabeled peptide at a concentration of 1 μM, and was ˜1% of total radioactivity added for each tracer. The maximum specific binding (B₀) was the total radioactivity bound in the absence of competing ligand, corrected for nonspecific binding, and for each tracer, ranged from 8% to 20% of the total radioactivity added. Nonlinear regression was used to calculate binding IC₅₀ values (see below). Scatchard transformations of homologous competition binding data derived from studies with 26 fmol of ¹²⁵I-[Aib^{1,3},M]PTH(1-21) were employed for estimations of apparent equilibrium dissociation constant (kDapps) and total number of ligand binding sites (Bₘₐₓ), assuming a single class of binding sites and equal affinities of the iodinated and non iodinated ligand.
Peptides PTH(1-34) ([Nle^{8,21}, Tyr³⁴]PTH(1-34)amide), [M]PTH(1-14) (M = Ala^{3,12}, Gln¹⁰, Har¹¹, Trp¹⁴), and [M]PTH(1-14 analogs, or C-terminally truncated derivatives thereof, containing α-aminoisobutyric acid (Aib) substitutions at the indicated positions were functionally evaluated in HKRK-B28 cells. “M” in [Aib^{1,3}, M]PTH(1-21) = Nle⁸, Gln¹⁰, Har¹¹, Ala¹², Trp¹⁴, Arg¹⁹ and Tyr²¹. The basal cAMP values (not subtracted) were 4.0 ± 0.1 pmole/well (n = 10). Peptides were based on the rat PTH sequence and were carboxy-amidated. Competition binding analyses were performed with ¹²⁵I-[M]PTH(1-21 )amide (Ala^{1,3}) as tracer for 4 h at 4° C. Data are means (±S.E.M.) Of the number of experiments indiated (n).

[2] = molecular target: T1, wild-type human PTH/PTHrP receptor …; test: competition binding, 125I-[M]PTH(1-21) tracer, HKRK-B28 cells
Method: as §1, with “Cells” for “Competition Binding. Binding reactions were performed with HKRK-B28 cells or in COS-7 cells in 24-well plates. The cells were rinsed with 0.5 mL of binding buffer, and then treated successively with 100 μL binding buffer, 100 μL of binding buffer containing various amounts of unlabeled competitor ligand, and 100 μL of binding buffer containing ca. 100,000 cpm of ¹²⁵I-[M]PTH(1-21) or ¹²⁵I-[Aib^{1,3},M]PTH(1-21)} (ca. 26 fmol; final volume=300 μL). Incubations were 4 to 6 h at 4° C., at which time near equilibrium conditions were attained. Cells”
Relative to the apparent binding affinity of [M]PTH(1-14), most of the Aib substitutions reduced affinity, in accordance with the corresponding effects on cAMP-signaling potency (Table 1).

[3] = molecular target: T1, wild-type human PTH/PTHrP receptor …; test: cell-based or functional assay

Row | Binder | IC50 [1] [µM] | fold reduction in affinity relative to [M]PTH(1-14) [2] [fold] | cAMP EC50 [3] [µM] | cAMP EMax(obs.) [3] [pmole/well]
1 | B1 | 0.053 | – | – | –
2 | B2 | – | > 10 | 710 | 51
3 | B3 | – | – | > 10 | 10
4 | B4 | 50 | – | 47 | 168
5 | B5 | – | > 10 | 1500 | 34
